Laboratory results taken from US6548066B1, “Immunogenic compositions to the CCK-B/gastrin receptor and methods for the treatment of tumors” (Aphton Corporation, priority 1997, dated 2003).

Legend:
MC26 mouse colon tumor = conditions: treated animals; 25 days in the control animals; cited from earlier work
[1] = target: T1, gastrin-receptor expressed by AR42J cells (Rattus norvegicus, UniProt P30553); experiment: Immunofluorescence binding of antibodies to AR42J cells; conditions: peptide inhibitor 1.0 mg/ml; antibody 100 μg/ml
T1 construct: host or cells: AR42J rat pancreatic adenocarcinoma cells
T1 sequence (P30553 1-452): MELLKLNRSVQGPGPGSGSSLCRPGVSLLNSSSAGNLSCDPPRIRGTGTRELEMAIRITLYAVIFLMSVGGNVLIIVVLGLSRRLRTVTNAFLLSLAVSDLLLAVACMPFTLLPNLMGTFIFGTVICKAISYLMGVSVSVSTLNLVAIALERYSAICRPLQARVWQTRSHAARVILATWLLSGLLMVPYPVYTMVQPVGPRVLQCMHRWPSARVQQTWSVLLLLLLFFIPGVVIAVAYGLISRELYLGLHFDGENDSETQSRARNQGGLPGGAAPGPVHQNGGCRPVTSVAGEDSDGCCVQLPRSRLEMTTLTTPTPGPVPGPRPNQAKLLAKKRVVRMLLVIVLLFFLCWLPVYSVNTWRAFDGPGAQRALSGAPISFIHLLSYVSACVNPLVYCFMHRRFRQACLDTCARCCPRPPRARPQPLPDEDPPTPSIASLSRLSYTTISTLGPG
Method: Binding of the GRP1-Ser specific antibodies to AR42J cells was assessed by immunofluorescence. AR42J cells were grown as in the previous Examples and harvested with cell scrapers from 175 cm^2 T-flasks and washed twice with buffer (PBS with 0.02% NaN3) by centrinugation (400×g for 7 min). The cells were kept at 0-4° C. for all manipulations. A single cell suspension was prepared in buffer, and the cell concentration was adjusted to 10^6 cells/ml. The cell suspension was added to 1.5 ml microfuge tubes (1 ml/tube). The cells were pelleted by centrifugation and supernatants were aspirated. The cells were resuspended in buffer (0.1 ml/tube) containing peptide inhibitors (1.0 mg/ml). The inhibitors included GRP1-Ser, GnRH, hG17(9)-Ser and buffer (no inhibitor). Antibodies, including the rabbit anti-GRP1-Ser (100 μg/ml), affinity purified rabbit anti-DT (negative control, 100 μg/ml), mouse anti-AR42J antiserum (positive control, 1:100 dilution, heat inactivated) or normal mouse serum were added to the appropriate tubes and the contents were mixed. The cells were incubated for 1 hour, with occasional mixing. […] Fluorescence was scored on a scale of 0 to 4, with 0 representing background fluorescence (obtained with the normal mouse serum) and 4 representing maximal fluorescence (obtained with the mouse anti-AR42J positive control antiserum).

[2] = target: T2, CCK-B/gastrin-receptor on AR42J cells (Rattus norvegicus, UniProt P30553); experiment: Radioligand (125I-hG17) binding inhibition on AR42J cells
T2 construct: host or cells: AR42J rat pancreatic adenocarcinoma cells
T2 sequence (P30553 1-452): T1 sequence (P30553 1-452)
Method: AR42J tumor cells (European Collection of Animal Cell cultures, Porton Down, UK) are derived from a rat pancreatic adenocarcinoma and are known to have well characterized CCK-B/gastrin-receptors. Thus AR42J were tested to confirm the expression of CCK-B/gastrin-receptor and specificity of the receptor for hH17 by radioligand inhibition. AR42J cells were cultured at 37° C. with 7% CO2 in complete RPMI 1640 (Sigma) supplemented with 10% FCS (Gemini Bioproducts), 2 mM glutamine (JRH Biosciences), 1 mM sodium pyruvate (JRH B.) and 50 μg/ml gentamicin (Gemini Bioproducts). The cells were harvested from 175 cm^2 T-flasks (Falcon Plastics) with PBS containing 0.25% EDTA, then washed twice with PBS (no EDTA) by centrifugation (400×g for 10 min). The cells were kept at 0-4° C. for all manipulations. A single cell suspension was prepared in buffer, and the cell concentration was adjusted to 10^6 cells/ml. Aliquots of 1 ml of cell suspension were added to 12×75 mm culture tubes, then the cells were centrifuged and the supernatants discarded. The cells were resuspended in PBS (0.1 ml/tube) containing human G17 (hG17), gonadotropin releasing hormone (GnRH), or no peptide. The peptide concentrations were 1.0 ng/ml, 100 ng/ml and 10 μg/ml. An aliquot of 0.1 ml of ^125I-hG17 (NEN), containing approximately 26,300 CPM (specific activity, 2200 Ci/mmol), was added to each tube. The tubes were vortexed, then incubated for 15 minutes. The cells were washed twice with PBS, then counted in a γ counter (Wallac). Samples were run in duplicate. Background counts were subtracted, then the % inhibition of ^125I-hG17 binding by each inhibitor was calculated using the equation: % Inhibition=(100)(1−((CPMuninhibited−CPMinhibited)/CPMuninhibited).

[3] = system: affinity purified anti-GRP1 Ab binding to GRP1-Ser-BSA; experiment: Inhibition ELISA, specificity of affinity purified anti-GRP1 antibodies; set-up: species or system rabbit; conditions: anti-GRP1 Ab 10 ng/ml; inhibitor 1:10 dilution series
Method: The following experiments were performed to establish the specificity of antibodies raised in rabbits against the GRP1-DT peptide containing Ser spacer described Example 1 using Method B. A series of tests were conducted to assess the specificity of rabbit antibodies induced by immunization with the GRP1-DT and affinity purified by immunoadsorption over a GRP1-Ser Sepharose column.
An inhibition ELISA was used to assess the specificity of the affinity purified antibodies for GRP1-Ser peptide. The assays were run as follows: GRP1-Ser-BSA conjugate was coated onto 96 well plates (Immulon U bottom) by overnight incubation of 50 μl of a 2 μg/ml solution of conjugate in glycine buffer (0.1M, pH=9.5) at 4° C. Affinity purified anti-GRP1 Ab (at a final concentration of 10 ng/ml) was combined with various inhibitors (in 1:10 dilution series) and incubated for 1 hour at room temperature. The inhibitors included GRP1-Ser, GRP1 EPT, Ser, human gastrin 17(1-9)-Ser spacer (hG17(9)-Ser), GRP1 EPT+Ser, and buffer (no inhibitor). Incubation buffer consisted of PBS+0.5% BSA+0.05% Tween 20+0.02% NaN3. Subsequent steps used the same buffer without BSA. The 96 well plates were washed free of nonbound GRP1-Ser-BSA, and the Ab+inhibitor mixtures were added (50 μl/well). After 1 hour, the plates were washed and a goat anti-rabbit Ig (H+L) alkaline phosphatase conjugate (Zymed) was added (1:2000 dilution). […] Following a 60 minute incubation, absorbance was measured on a MRX reader (Dynatech Laboratories). Samples were run in duplicate, and means were calculated for each concentration. Background binding (established with affinity purified rabbit anti-GnRH antibodies) was subtracted from all values, and the % Inhibition relative to no inhibitor added (anti-GRP1 Ab+buffer) was calculated for each inhibitor tested: % Inhibition=(100)(1−((Auninhibited−Ainhibited)/Auninhibited), where A=Absorbance. The results are shown in FIG. 4.

Molecule | inhibition of anti-GRP1-Ser antibody binding to AR42J cells [1] | inhibition of antibody binding to GRP1-Ser-BSA [3] | further results
CCCN(CCC)C(=O)C(CCC(=O)O)NC(=O)c1ccccc1 (stereo not drawn) [proglumide] |  |  | survival of xenograft mice bearing MC26 (MC26 mouse colon tumor): 39 days
GnRH: gonadotropin releasing hormone | failed to inhibit |  | inhibition of 125I-hG17 binding to AR42J cells ([2]; 100 pg, considered to be nonspecific): 6%; inhibition of 125I-hG17 binding to AR42J cells ([2]; two highest concentrations tested): no inhibition
KLNRSVQGTGPGPGASL [GRP1 EPT] |  | Approximately 60% | 
SSPPPPC [Ser spacer] |  | No inhibition | 
hG17(9)-Ser: amino-terminal nine residues of hG17 followed by the Ser spacer (QGPWLEEEESSPPPPPC) | failed to inhibit | No inhibition | 
hG17: human G17, heptadecagastrin |  |  | inhibition of 125I-hG17 binding to AR42J cells ([2]; 1 μg per tube, highest concentration tested): 32%
